In paper PMC7954794, “Protein context shapes the specificity of SH3 domain-mediated interactions in vivo” (Nature Communications, 2021):

Key:
Lsb3 = assay: Deep mutational scanning of Abp1 SH3, Abp1-Lsb3 DHFR-PCA (DMS score); assay type: cell-based, Saccharomyces cerevisiae; conditions: Abp1-Lsb3 DHFR-PCA; for lsb3sc: Frequencies scaled to the synonymous mutation distribution (DMS score) / LSB3_MTX2: frequencies normalized to the reference condition / LSB3_MTX2: MTX2; for LSB3_MTX2: frequencies normalized to the reference condition: single amino acid variants of Abp1 SH3; for LSB3_MTX2: frequencies normalized to the reference condition, amino acid level; for lsb3sc (DMS score): frequencies scaled to the synonymous mutation distribution
Description: (§1) Single site mutation libraries were generated by a PCR-based saturation mutagenesis method[50] as described below. The mutagenesis was carried out on the pUC19 plasmid containing the SH3 domain sequence of ABP1 flanked by its homology arms subsequently used in the CRISPR mediated genomic re-integration. We used oligos containing degenerate nucleotides (NNN) to carry out the mutagenesis at each codon of the domain sequence. In the first step of the two-step PCR procedure (short PCR step), an amplicon was generated with an oligo containing the degenerate codon which is positioned within the domain sequence, and another oligo lying outside Abp1 sequence in the plasmid. Short PCR step was carried out with the following settings: 5 min at 95 °C, 35 cycles: 20 s at 98 °C, 15 s at 60 °C, 30 s at 72 °C, and a final extension of 1 min at 72 °C. The amplicon generated in this step was used as a mega primer in the second step (long PCR step) to amplify the whole plasmid. Long PCR step was carried out with the following settings: 5 min at 95 °C, 22 cycles: 20 s at 98 °C, 15 s at 68 °C, 3 min 30 s at 72 °C, and a final extension of 5 min at 72 °C. The long PCR product was digested for 2 h at 37 °C with DpnI. The digestion product was then transformed into E. coli MC1061 competent cells. In order to obtain most of the 64 possible codons, we recovered ~1000 colonies from each plate to retrieve the plasmid single mutant libraries. Saturation mutagenesis was carried out in a codon-position-wise manner. Mutants at each position were stored separately. Library quality control was assessed by amplifying the purified plasmid DNA preparations by PCR followed by Illumina sequencing as described below. The genomic insertion of the mutant libraries (one library per amino acid position) was performed by targeting the stuffer sequence in the ABP1 SH3-deleted strain as described in the strain construction section. ABP1 SH3-deleted yeast competent cells were co-transformed with pCAS containing the stuffer-specific gRNA and PCR amplified ABP1 SH3 single position mutated libraries from the pUC19 preparations. As for the library generation, ~1000 colonies from each plate were retrieved. Glycerol stocks of yeast cells were kept for each position (58 different stocks corresponding to the 58 amino acid positions of Abp1 SH3). The stocks were also validated by Illumina sequencing (see below).
(§2) Liquid DHFR-PCA experiments were performed following the generation of the ABP1 SH3 single position mutated yeast strains and were performed in biological independent duplicates. An overnight culture was started in YPD + NAT by adding the same number of cells from each yeast mutant strain (master pool). Then, the master pool and Hua2-DHFR F[3] or Lsb3-DHFR F[3] preys strains were mixed in YPD (2:1) for mating and incubated for 8 h at 30 °C. Diploid cells were selected the first time by transferring the mixture in a YPD + NAT + HPH (OD 0.5) culture for 16 h at 30 °C. The next day, the first diploid selection was transferred in SC complete pH 6.0 + NAT + HPH at 0.5 OD and the culture was grown for 24 h at 30 °C. The validation of the yeast mutant libraries was done the next day with a fraction of the diploid cells (first DHFR-PCA experiment time point without PCA selection, reference condition S2) by amplifying ABP1 SH3 genomic sequence followed by Illumina sequencing as described in the section below. Following the selection, diploid cells OD was read using a TECAN Infinite F200 Pro, and dilutions to 0.1 OD in PCA selection media without agar in a 50 mL tube was done. Tubes were incubated at 30 °C for 72 h (second-time point of the DHFR-PCA experiment, first PCA selection). A fraction of the cells (5U OD) was collected for Illumina sequencing. The cells from the first PCA step were grown for a second PCA selection step using the same procedures. […]

Hua2 = assay: Deep mutational scanning of Abp1 SH3, Abp1-Hua2 DHFR-PCA (DMS score); assay type: cell-based, Saccharomyces cerevisiae; conditions: for hua2sc: Frequencies scaled to the synonymous mutation distribution (DMS score) / HUA2_MTX2: frequencies normalized to the reference condition / HUA2_MTX2 / hua2sc (DMS score): Abp1-Hua2 DHFR-PCA; for hua2sc: Frequencies scaled to the synonymous mutation distribution (DMS score) / HUA2_MTX2: frequencies normalized to the reference condition / HUA2_MTX2: MTX2; for HUA2_MTX2: frequencies normalized to the reference condition: single amino acid variants of Abp1 SH3; for quadrant (effect of mutation on Hua2 and Lsb3 interactions): classification from both Hua2 and Lsb3 DMS scores, Dest. both / Dest. Hua2 / Dest. Lsb3 / Neutral; for HUA2_MTX2: frequencies normalized to the reference condition, amino acid level; for hua2sc (DMS score): frequencies scaled to the synonymous mutation distribution
Description: as §1, §2

B1: ABP1 S51S (protein, UniProt P15891 2-592, looked up)
Actin-binding protein: ALEPIDYTTHSREIDAEYLKIVRGSDPDTTWLIISPNAKKEYEPESTGSSFHDFLQLFDETKVQYGLARVSPPGSDVEKIIIIGWCPDSAPLKTRASFAANFAAVANNLFKGYHVQVTARDEDDLDENELLMKISNAAGARYSIQTSSKQQGKASTPPVKKSFTPSKSPAPVSKKEPVKTPSPAPAAKISSRVNDNNDDDDWNEPELKERDFDQAPLKPNQSSYKPIGKIDLQKVIAEEKAKEDPRLVQKPTAAGSKIDPSSDIANLKNESKLKRDSEFNSFLGTTKPPSMTESSLKNDDDKVIKGFRNEKSPAQLWAERKAKQNSGNAETKAEAPKPEVPEDEPEGEPDVKDLKSKFEGLAASEKEEEEMENKFAPPPKKSEPTIISPKPFSKPQEPVKAEEAEQPKTDYKKIGNPLPGMHIEADNEEEPEENDDDWDDDEDEAAQPPLPSRNVASGAPVQKEEPEQEEIAPSLPSRNSIPAPKQEEAPEQAPEEEIEEEAEEAAPQLPSRSSAAPPPPPRRATPEKKPKENPWATAEYDYDAAEDNELTFVENDKIINIEFVDDDWWLGELEKDGSKGLFPSNYVSLGN
modifications: synonymous codon S51S
lsb3sc: Frequencies scaled to the synonymous mutation distribution (DMS score) (Lsb3): 0.05209
LSB3_MTX2: frequencies normalized to the reference condition (Lsb3): 1.552
hua2sc: Frequencies scaled to the synonymous mutation distribution (DMS score) (Hua2): -0.02064
HUA2_MTX2: frequencies normalized to the reference condition (Hua2): 1.592
quadrant (effect of mutation on Hua2 and Lsb3 interactions) (Hua2): Neutral

B2: ABP1 T18T (protein, UniProt P15891 2-592, looked up)
Actin-binding protein: ALEPIDYTTHSREIDAEYLKIVRGSDPDTTWLIISPNAKKEYEPESTGSSFHDFLQLFDETKVQYGLARVSPPGSDVEKIIIIGWCPDSAPLKTRASFAANFAAVANNLFKGYHVQVTARDEDDLDENELLMKISNAAGARYSIQTSSKQQGKASTPPVKKSFTPSKSPAPVSKKEPVKTPSPAPAAKISSRVNDNNDDDDWNEPELKERDFDQAPLKPNQSSYKPIGKIDLQKVIAEEKAKEDPRLVQKPTAAGSKIDPSSDIANLKNESKLKRDSEFNSFLGTTKPPSMTESSLKNDDDKVIKGFRNEKSPAQLWAERKAKQNSGNAETKAEAPKPEVPEDEPEGEPDVKDLKSKFEGLAASEKEEEEMENKFAPPPKKSEPTIISPKPFSKPQEPVKAEEAEQPKTDYKKIGNPLPGMHIEADNEEEPEENDDDWDDDEDEAAQPPLPSRNVASGAPVQKEEPEQEEIAPSLPSRNSIPAPKQEEAPEQAPEEEIEEEAEEAAPQLPSRSSAAPPPPPRRATPEKKPKENPWATAEYDYDAAEDNELTFVENDKIINIEFVDDDWWLGELEKDGSKGLFPSNYVSLGN
modifications: synonymous codon change T18T
LSB3_MTX2 (Lsb3): 1.406
lsb3sc (DMS score) (Lsb3): -0.09387
HUA2_MTX2 (Hua2): 1.603
hua2sc (DMS score) (Hua2): -0.009347

B3: ABP1 Y53Y (protein, UniProt P15891 2-592, looked up)
Actin-binding protein: ALEPIDYTTHSREIDAEYLKIVRGSDPDTTWLIISPNAKKEYEPESTGSSFHDFLQLFDETKVQYGLARVSPPGSDVEKIIIIGWCPDSAPLKTRASFAANFAAVANNLFKGYHVQVTARDEDDLDENELLMKISNAAGARYSIQTSSKQQGKASTPPVKKSFTPSKSPAPVSKKEPVKTPSPAPAAKISSRVNDNNDDDDWNEPELKERDFDQAPLKPNQSSYKPIGKIDLQKVIAEEKAKEDPRLVQKPTAAGSKIDPSSDIANLKNESKLKRDSEFNSFLGTTKPPSMTESSLKNDDDKVIKGFRNEKSPAQLWAERKAKQNSGNAETKAEAPKPEVPEDEPEGEPDVKDLKSKFEGLAASEKEEEEMENKFAPPPKKSEPTIISPKPFSKPQEPVKAEEAEQPKTDYKKIGNPLPGMHIEADNEEEPEENDDDWDDDEDEAAQPPLPSRNVASGAPVQKEEPEQEEIAPSLPSRNSIPAPKQEEAPEQAPEEEIEEEAEEAAPQLPSRSSAAPPPPPRRATPEKKPKENPWATAEYDYDAAEDNELTFVENDKIINIEFVDDDWWLGELEKDGSKGLFPSNYVSLGN
modifications: synonymous codon change Y53Y
lsb3sc: Frequencies scaled to the synonymous mutation distribution (DMS score) (Lsb3): -0.1658
LSB3_MTX2: frequencies normalized to the reference condition (Lsb3): 1.335
hua2sc: Frequencies scaled to the synonymous mutation distribution (DMS score) (Hua2): -0.26
HUA2_MTX2: frequencies normalized to the reference condition (Hua2): 1.353
quadrant (effect of mutation on Hua2 and Lsb3 interactions) (Hua2): Neutral

B4: ABP1 V20V (protein, UniProt P15891 2-592, looked up)
Actin-binding protein: ALEPIDYTTHSREIDAEYLKIVRGSDPDTTWLIISPNAKKEYEPESTGSSFHDFLQLFDETKVQYGLARVSPPGSDVEKIIIIGWCPDSAPLKTRASFAANFAAVANNLFKGYHVQVTARDEDDLDENELLMKISNAAGARYSIQTSSKQQGKASTPPVKKSFTPSKSPAPVSKKEPVKTPSPAPAAKISSRVNDNNDDDDWNEPELKERDFDQAPLKPNQSSYKPIGKIDLQKVIAEEKAKEDPRLVQKPTAAGSKIDPSSDIANLKNESKLKRDSEFNSFLGTTKPPSMTESSLKNDDDKVIKGFRNEKSPAQLWAERKAKQNSGNAETKAEAPKPEVPEDEPEGEPDVKDLKSKFEGLAASEKEEEEMENKFAPPPKKSEPTIISPKPFSKPQEPVKAEEAEQPKTDYKKIGNPLPGMHIEADNEEEPEENDDDWDDDEDEAAQPPLPSRNVASGAPVQKEEPEQEEIAPSLPSRNSIPAPKQEEAPEQAPEEEIEEEAEEAAPQLPSRSSAAPPPPPRRATPEKKPKENPWATAEYDYDAAEDNELTFVENDKIINIEFVDDDWWLGELEKDGSKGLFPSNYVSLGN
modifications: synonymous V20V codon change in SH3
LSB3_MTX2 (Lsb3): 1.496
lsb3sc (DMS score) (Lsb3): -0.004531
HUA2_MTX2 (Hua2): 1.042
hua2sc (DMS score) (Hua2): -0.571

B5: ABP1 F19F (protein, UniProt P15891 2-592, looked up)
Actin-binding protein: ALEPIDYTTHSREIDAEYLKIVRGSDPDTTWLIISPNAKKEYEPESTGSSFHDFLQLFDETKVQYGLARVSPPGSDVEKIIIIGWCPDSAPLKTRASFAANFAAVANNLFKGYHVQVTARDEDDLDENELLMKISNAAGARYSIQTSSKQQGKASTPPVKKSFTPSKSPAPVSKKEPVKTPSPAPAAKISSRVNDNNDDDDWNEPELKERDFDQAPLKPNQSSYKPIGKIDLQKVIAEEKAKEDPRLVQKPTAAGSKIDPSSDIANLKNESKLKRDSEFNSFLGTTKPPSMTESSLKNDDDKVIKGFRNEKSPAQLWAERKAKQNSGNAETKAEAPKPEVPEDEPEGEPDVKDLKSKFEGLAASEKEEEEMENKFAPPPKKSEPTIISPKPFSKPQEPVKAEEAEQPKTDYKKIGNPLPGMHIEADNEEEPEENDDDWDDDEDEAAQPPLPSRNVASGAPVQKEEPEQEEIAPSLPSRNSIPAPKQEEAPEQAPEEEIEEEAEEAAPQLPSRSSAAPPPPPRRATPEKKPKENPWATAEYDYDAAEDNELTFVENDKIINIEFVDDDWWLGELEKDGSKGLFPSNYVSLGN
modifications: synonymous codon change F19F
LSB3_MTX2 (Lsb3): 1.966
lsb3sc (DMS score) (Lsb3): 0.4657
HUA2_MTX2 (Hua2): 2.091
hua2sc (DMS score) (Hua2): 0.4783
